Laboratory results: patent publication US20100204445A1
Substitutions are numbered along the chain they refer to. Names and notes keep the numbering of the source. Ends that are not written are not given here.

B1: recombinant fused protein in which a dockerin polypeptide with the 48th amino acid alanine (A) substituted with serine (S) was fused at the N-terminal of … (protein, not shown: large carriers; small tags and cut ends)
chain: MGLKGDVNNDGAIDALDIAALKKAILTQSTSNINLTNADMNNDGNIDSIDFAQLKVKLLN
modifications: not fully specified (C-terminus)
B2: recombinant JNK3 of which a wild-type dockerin was fused at the N-terminal (protein, not shown: large carriers; small tags and cut ends)
chain: B1 chain with S48A
modifications: not fully specified (C-terminus)
B3: recombinant JNK3 of which an I49T-substituted dockerin polypeptide is fused at the N-terminal (protein, not shown: large carriers; small tags and cut ends)
chain: B1 chain with S48A, I49T
B4: recombinant JNK3 of which an I49V-substituted dockerin polypeptide is fused at the N-terminal (protein, not shown: large carriers; small tags and cut ends)
chain: B1 chain with S48A, I49V
B5: recombinant JNK3 of which an I49N-substituted dockerin polypeptide was fused at the N-terminal (protein, not shown: large carriers; small tags and cut ends)
chain: B1 chain with S48A, I49N
B6: recombinant JNK3 of which an I49S-substituted dockerin polypeptide is fused at the N-terminal (protein, not shown: large carriers; small tags and cut ends)
chain: B1 chain with S48A, I49S
B7: recombinant JNK3 of which an L16T/I49T-substituted dockerin polypeptide is fused at the N-terminal (protein, not shown: large carriers; small tags and cut ends)
chain: B1 chain with L16T, S48A, I49T
B8: recombinant JNK3 of which an I49G-substituted dockerin polypeptide is fused at the N-terminal (protein, not shown: large carriers; small tags and cut ends)
chain: B1 chain with S48A, I49G
B9: recombinant JNK3 with an I49T-substituted dockerin polypeptide fused at the C-terminal (protein, not shown: large carriers; small tags and cut ends)
chain: B1 chain with S48A, I49T
B10: recombinant JNK3 of which a wild-type dockerin was fused at the C-terminal (protein, not shown: large carriers; small tags and cut ends)
chain: B1 chain with S48A
B11: recombinant JNK3 of which an L16T/I49T-substituted dockerin polypeptide was fused at the C-terminal (protein, not shown: large carriers; small tags and cut ends)
chain: B1 chain with L16T, S48A, I49T

The binders below were run against recombinant cohesin (CipA of Clostridium josui, BAA32429) (Clostridium josui) (assay: SPR as in Example 7, under the action of a chelating agent).

Kd | Binder
5.2 nM | B1

The binders below were run against recombinant cohesin (CipA of Clostridium josui, BAA32429) (Clostridium josui) (assay: SPR (Biacore T-100), fusion captured via anti-JNK3 antibody on Protein A chip, cohesin as analyte, +Ca2+ (1 mM CaCl2), no EGTA).

Kd | koff | kon | Binder
6.5 nM | 0.0053 s⁻¹ | 810000 M⁻¹ s⁻¹ | B2
3.8 nM | 0.006 s⁻¹ | 1.6e+06 M⁻¹ s⁻¹ | B3
7.6 nM | 0.0033 s⁻¹ | 430000 M⁻¹ s⁻¹ | B4
3.7 nM | 0.005 s⁻¹ | 1.3e+06 M⁻¹ s⁻¹ | B5
4.5 nM | 0.0045 s⁻¹ | 1e+06 M⁻¹ s⁻¹ | B6
3.2 nM | 0.015 s⁻¹ | 4.9e+06 M⁻¹ s⁻¹ | B7
2.2 nM | 0.0066 s⁻¹ | 3e+06 M⁻¹ s⁻¹ | B8

These binders were tested against recombinant cohesin (CipA of Clostridium josui, BAA32429) (Clostridium josui) (assay: batch elution of C-terminal fusion from cohesin carrier with 5 mM EGTA at 4 C, SDS-PAGE densitometry, 360 min set to 100).

rate of eluted recombinant protein (%) at 5 min | rate of eluted recombinant protein (%) at 30 min | rate of eluted recombinant protein (%) at 60 min | rate of eluted recombinant protein (%) at 360 min | Binder
83.1% | 100% | 100% | 100% | B9
1.5% | 10.5% | 20.9% | 100% | B10
55.7% | 100% | 100% | 100% | B11

The binders below were run against recombinant cohesin (CipA of Clostridium josui, BAA32429) (Clostridium josui) (assay: SPR (Biacore T-100), same format, 5 mM EGTA in running buffer).

Kd | koff | kon | Binder
3.9 nM | 0.0079 s⁻¹ | 2e+06 M⁻¹ s⁻¹ | B2
19 nM | 0.023 s⁻¹ | 1.2e+06 M⁻¹ s⁻¹ | B3
8.1 nM | 0.011 s⁻¹ | 1.4e+06 M⁻¹ s⁻¹ | B4
56 nM | 0.089 s⁻¹ | 1.6e+06 M⁻¹ s⁻¹ | B5
67 nM | 0.048 s⁻¹ | 710000 M⁻¹ s⁻¹ | B6
12 nM | 0.029 s⁻¹ | 250000 M⁻¹ s⁻¹ | B7
170 nM | 0.05 s⁻¹ | 300000 M⁻¹ s⁻¹ | B8

The binders below were run against recombinant cohesin (CipA of Clostridium josui, BAA32429) (Clostridium josui) (assay: batch elution of N-terminal fusion from cohesin carrier with 5 mM EGTA at 4 C, SDS-PAGE densitometry, 360 min set to 100).

rate of eluted recombinant protein (%) at 5 min | rate of eluted recombinant protein (%) at 30 min | rate of eluted recombinant protein (%) at 60 min | rate of eluted recombinant protein (%) at 360 min | Binder
11.5% | 28.8% | 39.6% | 100% | B2
66.5% | 100% | 100% | 100% | B3
25.3% | 53.3% | 68.2% | 100% | B4
65.9% | 94.1% | 100% | 100% | B5
74.7% | 100% | 100% | 100% | B6
55.2% | 100% | 100% | 100% | B7
100% | 100% | 100% | 100% | B8
